The labels stand for the following.
T1: Rab32 1-225 (Q85L), GTP hydrolysis-defective mutant, GST removed (UniProt Q13637 1-225, Q85L)
T1 sequence: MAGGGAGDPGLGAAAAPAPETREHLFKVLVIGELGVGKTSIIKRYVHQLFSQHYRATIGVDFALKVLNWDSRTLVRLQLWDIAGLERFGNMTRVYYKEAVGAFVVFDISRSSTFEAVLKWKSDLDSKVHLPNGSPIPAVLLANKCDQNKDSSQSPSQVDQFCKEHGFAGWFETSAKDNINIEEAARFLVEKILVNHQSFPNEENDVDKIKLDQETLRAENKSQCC

B1: Rab32 (Q85L/G89T/N90S/V94L) (protein)
chain: T1 sequence with G89T, N90S, V94L
modifications: Construct limits taken from the parent Rab32 1-225 (PDB 4CYM entity 1); Mg2+ and GTP-analogue state (GppCp or GTPgammaS) presumed
B2: VARP451-640His6 Q509A/Y550A (domain or fragment)
chain: PSVVTPFSRDDRGHTPLHVAAVCGQASLIDLLVSKGAMVNATDYHGATPLHLACQKGYASVTLLLLHYKASAEVQDNNGNTPLHLACTYGHEDCVKALVAYDVESCRLDIGNEKGDTPLHIAARWGYQGVIETLLQNGASTEIQNRLKETPLKCALNSKILSVMEAYHLSFERRQKSSEAPVQSPQRSVD
B3: VARP451-640His6 (first ankyrin repeat domain, ANKRD1), wild type (domain or fragment)
chain: B2 chain with A59Q, A100Y

Substitutions are numbered along the chain they refer to. In names and notes the source's numbering stands. Some results are limits rather than exact numbers.

Test in all cases: ITC
(In general: In ITC the heat of successive injections is recorded.)

Assay [1] concerns the target B3.
In assay [2] the target is T1, Rab32 1-225 (Q85L), GTP ….
Assay [3] concerns the target Rab32(Q85L) mutated at M91/R93 (Switch-II), GST removed, as used in ITC (UniProt Q13637 1-225, Q85L).

With B1, the dissociation constant Kd (commonly the free concentration of one partner at which half of the binding sites on the other are occupied at equilibrium, for simple one-to-one binding) in assay [1] amounted to 13 µM. On to B2, for which the Kd in assay [2] was > 300 µM.

For B3, the dissociation constant Kd in assay [3] is > 300 µM.

Values taken from paper PMC4059916 (2014).
